In article doi:10.1101/2021.02.02.429416:
pEC50, pKd: −log10 of the molar value.

Columns and labels:
Aflibercept [1] = assay: ELISA
Aflibercept [2] = assay: BLI

pEC50 (Aflibercept [1])	pKd (Aflibercept [2])	Substance
8.79		Human VEGF-A121 (ligand)
8.77	11.57	Human VEGF-A165 (ligand)
